Data taken from the DeepSol protein solubility set.

test: soluble on expression in E. coli; label from the status in PepcDB or PDB records

Sequence | soluble on expression in E. coli
MSLENPYQLVEDIEGIGFKRADNLAEQIGIAADSPRRIRAAILHQIFQHAVQTGDTYVPAETLLQQTIRILETSRPIEIQPDQVATVIIQLVEEGKIQQEETNLYENSLYFSEWGIGNSIQRLLSRKKEIHYPEKEVQKNIRRIEKIFGIQYGPSQEQAIAEAIRSPLFILTGGPGTGKTTVINGIVNLFAELNGLELDPSKYTQEIFPILLAAPTGRAAKRMNETTGLPASTIHRLLGLNGREKTPSVSTKELEGGLLIVDEMSMVDTWLANTLFKAIPTNMQVILVGDKDQLPSVGPGQVLHDLLEIEQIPKMELNQIYRQGDGSSIIPLAHEIKEGRLPKDFTKNQKDRSYFRSDAYQIEPLISKIVEKAKNKGFRAQDIQVLAPMYRGPAGIDALNKMMQEIFNPGKPGKKEVHWNDTVYRIGDKVLQLVNTPELNVFNGDMGEITGIILAKDSEDKVDELVIQFDANEVTYKRNEWNKITLSYCCSIHKSQGSEFKMVILPMVHQYQRMLQRNLLYTAVTRSKELLILLGEEQAYVTCVANESASRMTTLKSRIMDNDKMNEGHHHHHH | soluble
MSLENWRFIEANSDYMVSDHGRILSFKGKSKLIISSSITAKGYEYVAIRQKGIYVGYSVHRLVATAFIPNPKRLPQVNHLDGNKLNNHVANLEWCDAYDNVMHAIRTGLRPSSPALSPVPCATTDEAGNILQAYPSMNALVKGEQMNPKQRNWLVLHLLHPERLKQSAMKKKSRAERSGSEECFLIAPEIPVLTVKADSIGEFEAGNPLGIGKSSNSVGEFEAGNPLGIGKSSNSVEEFEAGNPLGIGKSSNSVGEFKAGNVCVQPVSFSFVSSPFPLISLFAPIHHSVTQHYYRRLSPEESAIFGFNTYILPRERGQRKEFLQEGHHHHHH | not soluble
MSLENYQFPKDFLWGGAIAANQAEGAFKVDGKGISLADLHKYHKGKTNDEISEEQHKGVSLADIKASMEDKVNYYPKRHGIDFYHTYPEDLALLAEMGFKTFRTSLDWTRIFPTGEETEPNEAGLKYYDQLIDKIIELGMEPIITILHYETPVEIVLNNGGWHNRKVIDLFEKYGKTVLDRYNKKVKYWIVINQINLIQFEPFNSTAIPYDAVDDYLSATYQAVHNQFVASAKIYEYGKALNPDLMIGTMLADCTAYPFSCDPDDIVLAMKRNRMEYFFADVQFQGEYPQYALNYFDENNIHIEITEDDKAVLQKNTMDYLALSYYYSQMVDSKKNDLDPASITPNPHLKANPWGWAVDPKGLYNALSQYWDRYHKPIIIAENGFGMYDKLENGEIHDDYRIDYLSAHLKEMKRAMYDGVEIIAYCAWGPIDIVSCSSAQMEKRYGFIYVDLDNEGNGTGKRIKKDSFSWYKKVIESNGEDLEKGIITITTDPNSSSVDKLAAALEHHHHHH | soluble
MSLEPVQDDSVSGNFYISGKYMPSASHFGVFSAKEEKNPTVALYGLKQDWNGVSASSHADADFNNKGYSFKYENNPFLGFAGAIGYSMGGPRIEFEVSYETFDVKNQGGNYKNDAHRYCALDRKASSTNATASHYVLLKNEGLLDISLMLNACYDVVSEGIPFSPYICAGVGTDLISMFEAINPKISYQGKLGLSYSINPEASVFVGGHFHKVAGNEFRDISTLKAFATPSSAATPDLATVTLSVCHFGVELGGRFNFEGHHHHHH | not soluble
MSLERSLSMELVRVTEAAALASARWMGRGKKDEADEAATSAMRDVFDTVPMKGTVVIGEGEMDEAPMLYIGEKLGNGYGPRVDVAVDPLEGTNILASGGWNALTVIAVADHGTLLNAPDMYMQKIAVGPEAVGCIDIEAPVIDNLKAVAKAKNKDVEDVVATILNRERHAKIISELREAGARIKLINDGDVAGAINTAFDHTGVDILFGSGGAPEGVLSAVALKALGGEIIGKLLPQSEEEITRCHKMGLDLSKVLRMEDLVKGDDAIFAATGVTDGELLKGVQFKGSVGTTESLVIRAKSGTVRFVDGRHSLKKKPNLVIRPEGGSHHHHHH | soluble
MSLESAVKAESAGKSVAASLKARLEKTYSAQDLKVLSVSETPVKGIYEVVVSGRQIIYTDAEGGYMFVGELINIDTRKNLTEERAADLNKIDFASLPLDKAIKEVRGNGKLKVAVFSDPDCPFCKRLEHEFEKMTDVTVYSFMMPIAGLHPDAARKAQILWCQPDRAKAWTDWMRKGKFPVGGSICDNPVAETTSLGEQFGFNGTPTLVFPNGRTQSGYSPMPQLEEIIRKNQQEGHHHHHH | soluble
MSLESSQSLELLKNKIEQYALNELSNYTEGKIQVTADNIDPRLNLKVCNDNKLEVFNPYQTPMLNTSTMGIKCLEENNHWTLYIPVKITIFKSVLVAKRALLKGTKISNSDIYQTELDVQKLKQGYFTDSKELIGLVCKHDITPNSPLNPFNIELAKLVHKGEQVSIIAAHDNLTVSMDGVAMDEGALGDSVKVKNLSSKRIIEAQVTGKKTVKVTFEGHHHHHH | soluble
MSLETVRLQRELIEAQRQTYNEMRTYFTVNGVEGVIGAVFDEGVITLRVPSEVLFAPGAVELAPGADRVLATLKDLFIRRREQNINIKGFTDDVQPSANARFKDNWEVSALRSVNVLRYFLGAGIEPARLTATGLGELDPLFPNTSDENRARNRRVEFVLERRVVREGHHHHHH | soluble
MSLEYENEIMDLINDYDMLRVLKHFTVAHVDYAKNITRYTEIPQIRVRAYLERLKEMGLLDYYTNTSIKRTEAKLKKSAEVHKHHTYYQINKKAEAVLKEITPKLYVKVLGKEKLELLCSRKVRKTSPDRCTGLQAMGLIDKCFDLTELGREVFEAALRMQAIRCQDEGHHHHHH | soluble
MSLEYIIKNGIVYDPLNGINGEKMDICVKDGKIVESVSDNAKVIDASGCVVMPGGIDSHSHVAGAKVNVGRIFRPEDSKREIYAKKGLRTGTGFSVPSTYKTGYQYSEMGYTTVIEAAMPPLIARHTHEEFMETPQIDKAAMPLFGNNWMVLEYLKEGDIKACAAFVAWLLKAVKGFAIKIVNPGGTEAWGWGKNVHSLDDPVPYFDITPREIVRGLAEVNELLGLPHSIHVHPNNLGHPGNWETTLETMKCVEGVEAKPRVGERETSYYNTHCQFHSYGGTSWKDFESKAIEIAEYVNKSKHVVIDVGQVTLDETTTMTADGPMEYDLHMTNGLKWANCDVELETGSGVVPFIYSPKGPVYAVQWAIGLELFLNTNTDKVLLTTDHPNAGPFTRYPRVIAWLMSKKYRDEWLYNKVHKWAQQRSHVADADKEYDLYEIAKITRANQAKVLGLSETKGHLGVGAEADIAIYAIDPEEKDGKKIEKAFRYAKYVLKGGEVVVKDGNVVKEVFGDTIYVDVQVGEDLMNEVLKDVGEKFRRYYSVNLENYPVSDEYANSWRVIKIDATDINEGHHHHHH | not soluble
MSLFEQLDELAAQGKPAALLTIVRKDGSAPRDVGDKMIVTADEEYGTIGGGTVEHLAVQDARSVLSGADDPGIRTYELERGGNTGMVCGGEMDVFIDHVRGQAQLYIAGGGHISVELAPLAERLGYAVTVVDDREAYADPTQFPDETDVIHGEYGEALGDLPMGTETAVAVATRSGTFDQAAVAAALDGEAGYVGLVASETKANHVLDSLAESGYARRDLSRVQTPVGLDLGGSGPAAVALSVLAEVTMDRHDATGARATRLNLDDLVVVRGGGDLGSGVVYRLQQAGFPVIVTEVDQPTVVRRAVAFGAALYEDEVEVEGVTGRAAADIDEALELLADDVVPVLVDPEATVADDLDAAVLVDAIMAKGAFDTGTRREDADVVVGMGPGFEAGEDVDAVVETDRGHELGRVFYDGTASEYDGEPGERRGYTHERVLRAPTDGEWTPTVAIGDSVTAGDVVGTVGDRPVETEIDGLVRGLVHGGLSVSEGTKLGDVDPRGESVDPTKISDKALCLGGGVLEAVLRLRLEHHHHHH | not soluble
MSLFIDAHNHLDFFEEQEKLNKALDIIKNDNIITLGCSMDTKSYKFTKSLALKNKNIIPCFGIHPSRAHENFKNLECFDEYIRESKIIGEIGLDYVWVKEKEKYPHMKRVFTYFLEEAKKYNKITNIHTKGAESEIYNYIKKYELKTPIIHWYSGDKDTLKKLLDYGCYFTISVDIGYSKLSKEIVQLLPIDKILTETDGPTSLEWVNGDYGYPNVIKNVVKEISKIKNIQEEEVKGVIENNFKTLIRKEGITLEGHHHHHH | soluble
MSLFPAELMVVRKAQDGTIRPLMIAPDHVDIAEKVIEIYRSSAGRTRKEISKDIVTIEYGIKNPKIVRGLALIMDRMSTFRNRSRVDSKQLRGFLFQMGPAVSPEERQEKIALAAEHFSVSPQDIEEAIYGDMDSENVLDQCPSITPEHLNRRYNLEQLTTLMYRSKFIEVSGINNWYRFISLIKRQGLVFEAQGNPLMSVRIDGPNSVFNNMERYGSSMARVVERLTAFPGWKLHAEVEIKDRVYSVDLDSSISYYLPETDIEEEEAIPDPVVIGTRVFFPTRIINVHGQDVYVDIVYHMSPEAIKRRDEMIRSSGIKWITAVVGECKKFQGVLCFRNRVDWDAIIAKASEEYPATTDALREEIDRLYPNTEAILDLLDSRSIPLSHLEKIGYRIKWNGILPEIVRSTEGHHHHHH | soluble
MSLFTCEDPAVWKAVHNKYWTVVEAKSAGKRKTSGKLLQLDKWFQEDLPAAITARPERFLTHAELVKIMEWKLTKGKFRPRLQQLIGSNNEEAVQSSSSKAFSLLPDVQAAIKELCKLKGVGSATASAVLVAGAPDKVAFMADEAVESIAELRPVEYTDKHYALYLQKMLWKTSELNKVDAQQDWTPHRVEQCLWTWTVANQIQPSLLQGVSLKDATNQKPEKRKTADEKPSKRKKTE | not soluble
MSLFYYIVDDDEVFRSMLSQIIEDGDLGEVIGESEDGAFVEAEQLNYKKVDILFIDLLMPMRDGIETVRHIASSFTGKIIMISQVESKQLIGEAYTLGVEYYITKPLNKIEVVSVVRKVIERIRLERSIYDIQKSLNNVFQWEKPQMRSETVQEEKKISDSGRFLLAELGIAGENGSKDLLSMLEYLYGQEKAQTFEFGFPALKDIFHQITLKKLGEIASDADIEKEKKASEQRVRRAIYQSLNHLASLGLTDFSNPKFESYAPKFFDFTVVRKRMTEMTKDGVATSGHIRINTKKFIQVLYFEAKRLMEIEEGHHHHHH | soluble
MSLGDVVMNERELILAIETSCDETSAAVIENGTTILSNVVSSQIDSHKRFGGVVPEIASRHHVEQITVIVEEAMHEAGVDFADLAAVAVTEGPGLVGALLIGVNAAKAIAFAHQLPLIGVHHIAGHIYANRLLKELEFPLLALVVSGGHTELIYMENHGEFEVIGETRDDAVGEAYDKVARTLGLPYPGGPHIDRLAVNGEDTLQFPRAWLEPDSFDFSFSGLKSAVINTLHNAKQRGENVQAEDVAASFQASVIDVLVTKTKKAAEEYKVRQVLLAGGVAANKGLRTALEEAFFKEPIDLVIPPLSLCTDNAAMIGAAASIKFKQQTFAGMDLNGQPSLELENDEGHHHHHH | soluble
MSLGEKHHMVLNRDQGITTRFSPQQKRLQLSSPKPYLLFFFTASCGACKEAIPYLNAIEEQWGERFEVIGVLGGSRGIKSDLEFLKRHSIRFKVLSDPSSSDYLSRAVGGVMGVPLFFFFDETGAPKEHFLGLVPQRVLEEEVRSLLEGHHHHHH | soluble
MSLGELFAVFNEKLTIPEQEALMFLYAYMPTGDVTDYTGDYYLENVRLSDQARREMPWGKEIPDDVFRHFVLPIRVNNENLDDSRRVFYNELKDRVKNLSLHDAVLEVNHWCHEKVIYTPSDARTSAPLASVKTAYGRCGEESTFTVAALRSVGIPARQVYTPRWAHTDDNHAWVEAWVDGKWYFFGACEPEPVLNLGWFNAPASRGMLMHTKVFGRYTGQEEIMYETPNYTEINVIDNYAPTAKGSVLVTDAEGQPVADATVEFKVYNYAEFYTVATKHTDRSGHASLTAGKGDMLVWASKDGRFGYSKLSFGKDNELKITLDKNASETYSLPLDIVPPAEGEGHHHHHH | not soluble
